Sequences and labels used below:
B1: Histidine kinase 1 (Arabidopsis thaliana (Mouse-ear cress)), Q9SXL4 (parent)
chain: MRGDSFSMSIENLPDSPMGSRKKKMQIRKVFDKMTEWVTPWRSNLESPREMMILRGDVEQDEFQYASSHCLSSYYSVFVVRLAIMVMLAILIGLLTVLTWHFTRIYTKQSLQTLAYGLRYELLQRPVLRMWSVLNTTSELTTAQVKLSEYVIKKYDKPTTQEELVEMYQAMKDVTWALFASAKALNAITINYRNGFVQAFHRDPASSSTFYIFSDLKNYSISGTGPEDVSGWNNKSIHGNMSAIWYQQQLDPVTGENLGKPLKIPPDDLINIAGISQVPDGEASWHVTVSKYMDSPLLSAALPVFDASNKSIVAVVGVTTALYSVGQLMRDLVEVHGGHIYLTSQEGYLLATSTDGPLLKNTSNGPQLMKATDSEEWVIKSGAQWLEKTYGSKRPHVVHAENVKLGDQRYYIDSFYLNLKRLPIVGVVIIPRKFIMGKVDERAFKTLIILISASVCIFFIGCVCILILTNGVSKEMKLRAELIRQLDARRRAEASSNYKSQFLANMSHELRTPMAAVIGLLDILISDDCLSNEQYATVTQIRKCSTALLRLLNNILDLSKVESGKLVLEEAEFDLGRELEGLVDMFSVQCINHNVETVLDLSDDMPALVRGDSARLVQIFANLISNSIKFTTTGHIILRGWCENINSLHDEMSVSVDRRKPWAPMKTKQVQHRNHLQKSCKNANKMVLWFEVDDTGCGIDPSKWDSVFESFEQADPSTTRTHGGTGLGLCIVRNLVNKMGGEIKVVQKNGLGTLMRLYLILSTPDTVDQNIQPDFSKYGLVVMLSMYGSTARMITSKWLRKHGIATVEASDWNELTQIIRDLLETGSRDNSFDSQHNISDPLRAELSNIVEIKNPVFVIVVDIGVLDLTTNIWKEQLNYLDRFSNKAKFAWLLKHDTSNTVKTELRRKGHVMMVNKPLYKAKMIQILEAVIKNRKRGLCNDLRNRGNGSDESHDCLEIDPTQFDTCSSDDSSETSGEKQVDKSVKPSTLHSPVLKNYLIDATTSNDDSTSASMTQKNPEEEDWKDRLYSGIALDGKNQKSLEGIRILLAEDTPVLQRVATIMLEKMGATVTAVWDGQQAVDSLNYKSINAQAPTEEHKSFEEETANKVTTRETSLRNSSPYDLILMDCQMPKMDGYEATKAIRRAEIGTELHIPIVALTAHAMSSDEAKCLEVGMDAYLTKPIDRKLMVSTILSLTKPSAFQTSLSA
partner: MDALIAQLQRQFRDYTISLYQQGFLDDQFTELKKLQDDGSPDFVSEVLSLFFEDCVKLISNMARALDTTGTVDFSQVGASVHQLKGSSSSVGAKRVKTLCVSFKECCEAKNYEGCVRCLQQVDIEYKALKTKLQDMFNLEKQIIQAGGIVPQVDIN

In this experiment the parent is B1. The conditions noted are these: with ahp2_arath AHP2, Q9ZNV8.
In the case of D1075E, the “effect of a mutation on the interaction” value was “disrupting interaction”.

The values above are taken from IntAct's records for PubMed 10930573.
